The source of these data is the supplement of paper PMC7877785.

A short description of the series: self-splicing fitness, log relative to wild type (ln ratio); higher = more splicing; Tetrahymena group I intron in knt gene, E. coli kanamycin selection, DiMSum; sequences stand for … in CUCUCU…GGAGGGAAAAGUUAUCAGGCAUGCACCUGGUAGCUAGUCUUUAAACCAAUAGAUUGCAUCGGUUUAAAAGGCAAGACCGUCAAAUUGCGGGAAAGGGGUCAACAGCCGUUCAGUACCAAGUCUCAGGGGAAACUUUGAGAUGGCCUUGCAAAGGGUAUGGUAAUAAGCUGACGGACAUGGUCCUAACCACGCAGCCAAGUCCUAAGUCAACAGAUCUUCUGUUGAUAUGGAUGCAGUUCACAGACUAAAUGUCGGUCGGGGAAGAUGUAUUCUUCUCAUAAGAUAUAGUCGGACCUCUCCUUAAUGGGAGCUAGCGGAUGAAGUGAUGCAACACUGGAGCCGCUGGGAACUAAUUUGUAUGCGAAAGUAUAUUGAUUAGUUUUGGAGUACUCGUGGUCG
An outline of the steps: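 Fitness was computed with DiMSum as the error-weighted combination of replicate fold changes, kanamycin versus none, each normalised to wild type. The library randomised all eight intron nucleotides of the P1ex region, with the intron placed in the knt kanamycin-resistance gene on pET-22b(+) in E. coli BL21(DE3). Six replicate transformations were grown overnight at 37°C or 30°C on LB agar with or without 25 μg/mL kanamycin, plus 100 μg/mL carbenicillin, 50 μM IPTG and 0.2% rhamnose. Pooled colonies were amplicon-sequenced on an Illumina HiSeq 2500.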

± gives the uncertainty stated by the source.

Consider ACAGAGCAAUAUUACGCAUA, for which the “self-splicing fitness (ln)” value is -3.96 ± 0.31 (30 °C) and -1.8 ± 0.2 (37 °C).

Turning to GUAUAGCAAUAUUACGUGCA, the “self-splicing fitness (ln)” value by setting is: (30 °C) -0.903 ± 0.19; (37 °C) -0.516 ± 0.18.

In the case of CCCAAGCAAUAUUACGACAG, the “self-splicing fitness (ln)” value (30 °C) is -4.22 ± 0.15 and the “self-splicing fitness (ln)” value (37 °C) is -2.39 ± 0.12.

On to GCAAAGCAAUAUUACGUACG, for which the “self-splicing fitness (ln)” value is -1.13 ± 0.083 (30 °C) and -1.84 ± 0.13 (37 °C).

GUGGAGCAAUAUUACGUCGU: the “self-splicing fitness (ln)” value (30 °C) was -1.65 ± 0.21 and the “self-splicing fitness (ln)” value (37 °C) was -1.48 ± 0.26.

With UGCCAGCAAUAUUACGUUAU, the “self-splicing fitness (ln)” value (30 °C) is -3.98 ± 0.2 and the “self-splicing fitness (ln)” value (37 °C) was -0.982 ± 0.12.

Consider UGAGAGCAAUAUUACGUGCC, for which the “self-splicing fitness (ln)” value (37 °C) was -2.99 ± 0.43.

Turning to CCCGAGCAAUAUUACGGGCG, the “self-splicing fitness (ln)” value by setting is: (30 °C) -3.03 ± 0.19; (37 °C) -2.47 ± 0.25.

In the case of UCGUAGCAAUAUUACGCUCA, the “self-splicing fitness (ln)” value runs as follows: (30 °C) -0.522 ± 0.13; (37 °C) -0.556 ± 0.16.

Regarding CGAUAGCAAUAUUACGGUGU, the “self-splicing fitness (ln)” value by setting is: (30 °C) -2.7 ± 0.11; (37 °C) -1.06 ± 0.095.

Turning to GCUUAGCAAUAUUACGGAGA, the “self-splicing fitness (ln)” value by setting is: (30 °C) -2.02 ± 0.14; (37 °C) -0.596 ± 0.12.

For the sequence AAACAGCAAUAUUACGGCGG, the “self-splicing fitness (ln)” value by setting is: (30 °C) -2.4 ± 0.088; (37 °C) -1.35 ± 0.092.

Take CAUAAGCAAUAUUACGUCGA: the “self-splicing fitness (ln)” value is, setting by setting: (30 °C) -3.41 ± 0.26; (37 °C) -2.86 ± 0.17.

As for GGGUAGCAAUAUUACGGUGA, the “self-splicing fitness (ln)” value by setting is: (30 °C) -1.74 ± 0.19; (37 °C) 0.155 ± 0.16.

UGCCAGCAAUAUUACGCGAU: the “self-splicing fitness (ln)” value reads like this: (30 °C) -2.42 ± 0.17; (37 °C) -1.88 ± 0.23.

As for GGGUAGCAAUAUUACGGAAG, the “self-splicing fitness (ln)” value is, setting by setting: (30 °C) -3.46 ± 0.35; (37 °C) -1.87 ± 0.45.

As to AAAAAGCAAUAUUACGCCUG, the “self-splicing fitness (ln)” value is -0.823 ± 0.09 (30 °C) and -0.000429 ± 0.12 (37 °C).

As for CCCUAGCAAUAUUACGAAGU, the “self-splicing fitness (ln)” value is -4.34 ± 0.28 (30 °C) and -2.89 ± 0.27 (37 °C).

With AUCUAGCAAUAUUACGUUAU, the “self-splicing fitness (ln)” value reads like this: (30 °C) -1.79 ± 0.11; (37 °C) -1.46 ± 0.11.

For GGCUAGCAAUAUUACGGACC, the “self-splicing fitness (ln)” value is, setting by setting: (30 °C) -1.67 ± 0.14; (37 °C) -0.619 ± 0.2.

As for GAGCAGCAAUAUUACGCUGG, the “self-splicing fitness (ln)” value by setting is: (30 °C) -3 ± 0.16; (37 °C) -1.47 ± 0.16.

For UGCCAGCAAUAUUACGAAGC, the “self-splicing fitness (ln)” value was -3.74 ± 0.22 (30 °C) and -1.91 ± 0.18 (37 °C).

Take CGUGAGCAAUAUUACGUAGU: the “self-splicing fitness (ln)” value (30 °C) is -4.5 ± 0.36 and the “self-splicing fitness (ln)” value (37 °C) was -2.19 ± 0.2.

On to CGCUAGCAAUAUUACGGUGA, for which the “self-splicing fitness (ln)” value (30 °C) was -2.28 ± 0.14 and the “self-splicing fitness (ln)” value (37 °C) was -0.996 ± 0.11.

In the case of CCGGAGCAAUAUUACGGGCA, the “self-splicing fitness (ln)” value was -3.1 ± 0.48 (30 °C) and -2.4 ± 0.41 (37 °C).

Take CCGAAGCAAUAUUACGCUGG: the “self-splicing fitness (ln)” value (30 °C) is -2.83 ± 0.22 and the “self-splicing fitness (ln)” value (37 °C) was -3.49 ± 0.35.

For CUGGAGCAAUAUUACGGGUA, the “self-splicing fitness (ln)” value was -2.59 ± 0.23 (30 °C) and -1.77 ± 0.26 (37 °C).

With UGUGAGCAAUAUUACGGCAG, the “self-splicing fitness (ln)” value reads like this: (30 °C) -2.64 ± 0.27; (37 °C) -0.26 ± 0.28.

On to AUAUAGCAAUAUUACGGAGG, for which the “self-splicing fitness (ln)” value (30 °C) was -3.24 ± 0.45.

With CCGAAGCAAUAUUACGUCUG, the “self-splicing fitness (ln)” value reads like this: (30 °C) -0.669 ± 0.06; (37 °C) -0.285 ± 0.068.

As for GCUCAGCAAUAUUACGGUGC, the “self-splicing fitness (ln)” value is, setting by setting: (30 °C) -1.82 ± 0.19; (37 °C) -1.29 ± 0.16.

In the case of UAAAAGCAAUAUUACGAGGA, the “self-splicing fitness (ln)” value was -2.79 ± 0.17 (30 °C) and -1.54 ± 0.14 (37 °C).

Consider UGAAAGCAAUAUUACGAGCA, for which the “self-splicing fitness (ln)” value is, setting by setting: (30 °C) -0.581 ± 0.089; (37 °C) 0.406 ± 0.11.

With AAGUAGCAAUAUUACGGUCC, the “self-splicing fitness (ln)” value reads like this: (30 °C) -1.32 ± 0.17; (37 °C) -0.239 ± 0.14.

Regarding GCCAAGCAAUAUUACGCCCC, the “self-splicing fitness (ln)” value is, setting by setting: (30 °C) -1.02 ± 0.21; (37 °C) -0.946 ± 0.22.

As to UUUGAGCAAUAUUACGGCCA, the “self-splicing fitness (ln)” value (37 °C) is -1.17 ± 0.46.

CCACAGCAAUAUUACGUGAA: the “self-splicing fitness (ln)” value is, setting by setting: (30 °C) -2.7 ± 0.072; (37 °C) -1.01 ± 0.082.

Take UGUUAGCAAUAUUACGCUCU: the “self-splicing fitness (ln)” value (30 °C) is -1.66 ± 0.16 and the “self-splicing fitness (ln)” value (37 °C) was -0.371 ± 0.16.

Consider CGAAAGCAAUAUUACGAAGG, for which the “self-splicing fitness (ln)” value runs as follows: (30 °C) -1.05 ± 0.11; (37 °C) -1.03 ± 0.16.

For the sequence GUAGAGCAAUAUUACGGCUU, the “self-splicing fitness (ln)” value (30 °C) was -0.97 ± 0.075 and the “self-splicing fitness (ln)” value (37 °C) was -0.03 ± 0.12.

Consider AUUUAGCAAUAUUACGCCCA, for which the “self-splicing fitness (ln)” value is, setting by setting: (30 °C) -1.06 ± 0.26; (37 °C) -1.58 ± 0.27.

With UCCAAGCAAUAUUACGGGAC, the “self-splicing fitness (ln)” value (30 °C) was -3.59 ± 0.25 and the “self-splicing fitness (ln)” value (37 °C) is -1.24 ± 0.21.

Regarding UGGGAGCAAUAUUACGUGGU, the “self-splicing fitness (ln)” value runs as follows: (30 °C) -2.97 ± 0.35; (37 °C) -1.56 ± 0.26.

On to UAUGAGCAAUAUUACGAAGA, for which the “self-splicing fitness (ln)” value runs as follows: (30 °C) -2.69 ± 0.44; (37 °C) -1.81 ± 0.2.

In the case of CUUCAGCAAUAUUACGGGCA, the “self-splicing fitness (ln)” value (30 °C) was -3.21 ± 0.4 and the “self-splicing fitness (ln)” value (37 °C) is -2.64 ± 0.27.

As for CUAGAGCAAUAUUACGUUCG, the “self-splicing fitness (ln)” value runs as follows: (30 °C) -1.1 ± 0.047; (37 °C) -0.578 ± 0.076.

In the case of CGCCAGCAAUAUUACGGGCU, the “self-splicing fitness (ln)” value (30 °C) was -3.79 ± 0.18 and the “self-splicing fitness (ln)” value (37 °C) is -2.04 ± 0.12.

Turning to UACAAGCAAUAUUACGACUC, the “self-splicing fitness (ln)” value reads like this: (30 °C) -2.6 ± 0.14; (37 °C) -1.2 ± 0.16.

For AGAUAGCAAUAUUACGCACG, the “self-splicing fitness (ln)” value reads like this: (30 °C) -1.13 ± 0.14; (37 °C) -0.355 ± 0.12.

As to ACAGAGCAAUAUUACGGACU, the “self-splicing fitness (ln)” value (30 °C) is -2.73 ± 0.18 and the “self-splicing fitness (ln)” value (37 °C) is -1.07 ± 0.14.

Regarding GGCUAGCAAUAUUACGUUAG, the “self-splicing fitness (ln)” value (30 °C) was -3.51 ± 0.32 and the “self-splicing fitness (ln)” value (37 °C) was -0.919 ± 0.24.

For AAGCAGCAAUAUUACGAACA, the “self-splicing fitness (ln)” value reads like this: (30 °C) -1.56 ± 0.13; (37 °C) -0.603 ± 0.13.

Consider UGGGAGCAAUAUUACGAUGG, for which the “self-splicing fitness (ln)” value is -2.64 ± 0.18 (30 °C) and -2.77 ± 0.48 (37 °C).

Regarding GGCCAGCAAUAUUACGACCU, the “self-splicing fitness (ln)” value (30 °C) was -1.96 ± 0.19 and the “self-splicing fitness (ln)” value (37 °C) is -0.345 ± 0.22.

On to AUAUAGCAAUAUUACGUUGA, for which the “self-splicing fitness (ln)” value by setting is: (30 °C) -2.63 ± 0.22; (37 °C) -2.53 ± 0.26.

Take CUACAGCAAUAUUACGCGAA: the “self-splicing fitness (ln)” value is -2.83 ± 0.18 (30 °C) and -3.89 ± 0.31 (37 °C).

Regarding CCUCAGCAAUAUUACGAUCG, the “self-splicing fitness (ln)” value (30 °C) is -0.809 ± 0.1 and the “self-splicing fitness (ln)” value (37 °C) was -0.00907 ± 0.14.

Turning to UUCAAGCAAUAUUACGCGUA, the “self-splicing fitness (ln)” value (30 °C) was -1.17 ± 0.14 and the “self-splicing fitness (ln)” value (37 °C) was -0.0781 ± 0.1.

For UUCAAGCAAUAUUACGCAUU, the “self-splicing fitness (ln)” value (30 °C) is -3.98 ± 0.26 and the “self-splicing fitness (ln)” value (37 °C) was -1.27 ± 0.13.

On to UGGCAGCAAUAUUACGACUA, for which the “self-splicing fitness (ln)” value runs as follows: (30 °C) 0.138 ± 0.07; (37 °C) 0.38 ± 0.1.

For GCUCAGCAAUAUUACGCCAC, the “self-splicing fitness (ln)” value (37 °C) is -1.97 ± 0.47.
